Results: the supplement of paper PMC7877785
± gives the uncertainty stated by the source.

Assay: self-splicing fitness, log relative to wild type (ln ratio); higher = more splicing; Tetrahymena group I intron in knt gene, E. coli kanamycin selection, DiMSum; sequences stand for … in CUCUCU…GGAGGGAAAAGUUAUCAGGCAUGCACCUGGUAGCUAGUCUUUAAACCAAUAGAUUGCAUCGGUUUAAAAGGCAAGACCGUCAAAUUGCGGGAAAGGGGUCAACAGCCGUUCAGUACCAAGUCUCAGGGGAAACUUUGAGAUGGCCUUGCAAAGGGUAUGGUAAUAAGCUGACGGACAUGGUCCUAACCACGCAGCCAAGUCCUAAGUCAACAGAUCUUCUGUUGAUAUGGAUGCAGUUCACAGACUAAAUGUCGGUCGGGGAAGAUGUAUUCUUCUCAUAAGAUAUAGUCGGACCUCUCCUUAAUGGGAGCUAGCGGAUGAAGUGAUGCAACACUGGAGCCGCUGGGAACUAAUUUGUAUGCGAAAGUAUAUUGAUUAGUUUUGGAGUACUCGUGGUCG
Procedure, shortened: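 Colonies from six replicate transformations of E. coli BL21(DE3) were pooled and amplicon-sequenced on an Illumina HiSeq 2500. The library placed an intron with all eight P1ex-region nucleotides randomised inside the knt kanamycin-resistance gene on pET-22b(+), and cells grew overnight at 37°C or 30°C on LB agar with or without 25 μg/mL kanamycin (plus 100 μg/mL carbenicillin, 50 μM IPTG, 0.2% rhamnose). Fitness is the DiMSum error-weighted combination of wild-type-normalised replicate fold changes, kanamycin versus none.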

Sequence	self-splicing fitness (ln) (30 °C)	self-splicing fitness (ln) (37 °C)
GAGCAGCAAUAUUACGGUGA	-2.25 ± 0.12	-0.646 ± 0.13
AGAGAGCAAUAUUACGGUAC	–	-2.12 ± 0.27
UCACAGCAAUAUUACGCCAG	-1.6 ± 0.15	-0.668 ± 0.25
CCGCAGCAAUAUUACGAGAG	-2.62 ± 0.084	-1.56 ± 0.082
CUAUAGCAAUAUUACGCAUA	-3.93 ± 0.29	-2.68 ± 0.24
AGGCAGCAAUAUUACGCAUG	-2.69 ± 0.17	-0.809 ± 0.17
UCAUAGCAAUAUUACGCGGC	-3.53 ± 0.44	–
GGGUAGCAAUAUUACGGAGU	-2.36 ± 0.22	-1.21 ± 0.2
AUAAAGCAAUAUUACGAAGG	-2.1 ± 0.081	-1.41 ± 0.12
CAUGAGCAAUAUUACGCAGC	-3.08 ± 0.38	-2.32 ± 0.34
CAUAAGCAAUAUUACGACGG	-0.41 ± 0.072	-0.00998 ± 0.088
UUCAAGCAAUAUUACGUAGU	-3.6 ± 0.22	-1.61 ± 0.2
AGCCAGCAAUAUUACGUCAA	-3.18 ± 0.22	-2.53 ± 0.21
CGCCAGCAAUAUUACGCGGA	-2.91 ± 0.2	-1.99 ± 0.16
AGUAAGCAAUAUUACGAGAG	-2.28 ± 0.24	-2.49 ± 0.29
CCAGAGCAAUAUUACGUGAA	-3.7 ± 0.16	-2.32 ± 0.18
CAAAAGCAAUAUUACGAAGU	-3.16 ± 0.15	-2.23 ± 0.13
UUCGAGCAAUAUUACGUUAC	-3.5 ± 0.48	–
AAUCAGCAAUAUUACGGAAC	-1.37 ± 0.064	-0.769 ± 0.093
ACACAGCAAUAUUACGUUAU	-3.35 ± 0.11	-2.65 ± 0.12
UGUGAGCAAUAUUACGGCCC	-1.88 ± 0.33	-1.43 ± 0.44
GUACAGCAAUAUUACGGCGG	-2.78 ± 0.19	-2.66 ± 0.22
UAGUAGCAAUAUUACGGCUU	-0.242 ± 0.11	0.187 ± 0.13
AUGAAGCAAUAUUACGGCUU	-4.22 ± 0.24	-3.03 ± 0.21
UUAUAGCAAUAUUACGUUUG	-2.12 ± 0.15	-1.14 ± 0.18

Sequence	self-splicing fitness (ln) (30 °C)	self-splicing fitness (ln) (37 °C)
CCCCAGCAAUAUUACGGGCG	-3.69 ± 0.15	-1.94 ± 0.11
ACAGAGCAAUAUUACGAGGC	-3.42 ± 0.38	-2.15 ± 0.25
UAGCAGCAAUAUUACGACAG	-0.896 ± 0.1	-0.68 ± 0.13
CUGAAGCAAUAUUACGGCGU	-3.6 ± 0.41	-2.98 ± 0.47
UCCCAGCAAUAUUACGGACG	-3.93 ± 0.21	-1.97 ± 0.12
CCUAAGCAAUAUUACGAAUA	-3.51 ± 0.35	–
CCGAAGCAAUAUUACGGUGA	–	-3.25 ± 0.43
UGGAAGCAAUAUUACGCAGC	-2.22 ± 0.42	-2.6 ± 0.26
AAUAAGCAAUAUUACGUUUG	-3.16 ± 0.11	-1.36 ± 0.1
UGAUAGCAAUAUUACGGUGU	-3.45 ± 0.18	-3.09 ± 0.24
CUGGAGCAAUAUUACGAUUU	-4.07 ± 0.46	-2.01 ± 0.34
AUUGAGCAAUAUUACGAAUC	-2.93 ± 0.4	–
AGACAGCAAUAUUACGCUCU	-2.08 ± 0.18	-0.598 ± 0.15
GAUUAGCAAUAUUACGCUGC	-3.07 ± 0.24	-2.25 ± 0.35
GCAAAGCAAUAUUACGUGUG	-1.99 ± 0.046	-0.419 ± 0.052
CAUGAGCAAUAUUACGGGCC	–	-1.98 ± 0.36
UUUAAGCAAUAUUACGAACC	–	0.0298 ± 0.37
UGCAAGCAAUAUUACGAUGU	-2.73 ± 0.16	-2.14 ± 0.19
UAACAGCAAUAUUACGGGCU	-4.01 ± 0.21	-2.3 ± 0.16
UUAAAGCAAUAUUACGACGU	-0.129 ± 0.069	0.0726 ± 0.1
GUGGAGCAAUAUUACGGUGU	-2.5 ± 0.17	-1.78 ± 0.22
GAUUAGCAAUAUUACGGACA	-1.06 ± 0.13	0.179 ± 0.12
GUUAAGCAAUAUUACGUGAU	-1.94 ± 0.067	-1.44 ± 0.082
GUCUAGCAAUAUUACGACGA	-1.86 ± 0.18	-0.293 ± 0.16
GUCCAGCAAUAUUACGUCAU	-0.201 ± 0.077	0.269 ± 0.081
